Reference: article PMC12212138, “Crystal structure and mutagenesis of a nucleic acid–binding BRCT domain in human PARP4”

Legend:
Conditions in all cases: protein: recombinant; tags: N-terminal His-SUMO removed by TEV; label: 5'-6-FAM; predicted intramolecular fold
PARP4 BRCT WT [1] = biological target: T1, PARP4 BRCT WT (human, UniProt Q9UKK3 1-100); test: FP; 30 nM probe, probe concentration comparison; FP: 50 mM Tris pH 7.5, 50 mM NaCl, 1 mM MgCl2, 0.05% NP40, 2 mM DTT, 5% glycerol, 25 ug/ml BSA, room temp 30 min; EMSA: 50 mM Tris pH 7.5, 50 mM NaCl, 4% Ficoll PM400, 0.05% NP40, 2 mM DTT, 0-18 uM protein, room temp 30 min, gel at 4 C
T1 sequence: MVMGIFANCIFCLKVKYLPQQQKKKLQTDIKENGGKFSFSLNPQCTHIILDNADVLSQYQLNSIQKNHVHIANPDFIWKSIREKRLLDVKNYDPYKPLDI

PARP4 BRCT WT [2] = biological target: T1, PARP4 BRCT WT; test: FP; 3 nM probe; FP: 50 mM Tris pH 7.5, 50 mM NaCl, 1 mM MgCl2, 0.05% NP40, 2 mM DTT, 5% glycerol, 25 ug/ml BSA, room temp 30 min; EMSA: 50 mM Tris pH 7.5, 50 mM NaCl, 4% Ficoll PM400, 0.05% NP40, 2 mM DTT, 0-18 uM protein, room temp 30 min, gel at 4 C
PARP4 BRCT F39Q = biological target: T2, PARP4 BRCT F39Q (human, UniProt Q9UKK3 1-100, F39Q); test: as above
T2 sequence: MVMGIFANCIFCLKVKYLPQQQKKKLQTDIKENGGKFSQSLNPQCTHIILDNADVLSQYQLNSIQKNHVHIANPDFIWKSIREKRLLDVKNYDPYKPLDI

[3] = biological target: T3, PARP4 BRCT-WGR-CAT K23/24Q (human, UniProt Q9UKK3 1-573, K23Q;K24Q); test: as above
T3 sequence: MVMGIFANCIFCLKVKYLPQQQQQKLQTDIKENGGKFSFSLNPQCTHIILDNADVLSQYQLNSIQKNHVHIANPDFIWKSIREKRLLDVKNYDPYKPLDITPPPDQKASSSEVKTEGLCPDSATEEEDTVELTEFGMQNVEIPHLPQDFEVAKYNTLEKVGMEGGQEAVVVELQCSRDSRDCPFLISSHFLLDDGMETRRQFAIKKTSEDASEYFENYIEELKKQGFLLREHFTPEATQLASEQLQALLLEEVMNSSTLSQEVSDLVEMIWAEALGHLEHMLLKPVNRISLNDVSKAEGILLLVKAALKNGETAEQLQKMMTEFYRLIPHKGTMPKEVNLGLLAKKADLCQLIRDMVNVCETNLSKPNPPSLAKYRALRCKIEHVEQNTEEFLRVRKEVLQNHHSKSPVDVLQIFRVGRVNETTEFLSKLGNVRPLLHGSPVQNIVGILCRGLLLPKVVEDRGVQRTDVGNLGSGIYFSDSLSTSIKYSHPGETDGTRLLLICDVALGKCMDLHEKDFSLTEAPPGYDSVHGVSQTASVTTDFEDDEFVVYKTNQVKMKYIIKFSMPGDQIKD

PARP4 BRCT F39A = biological target: T4, PARP4 BRCT F39A (human, UniProt Q9UKK3 1-100, F39A); test: as above
T4 sequence: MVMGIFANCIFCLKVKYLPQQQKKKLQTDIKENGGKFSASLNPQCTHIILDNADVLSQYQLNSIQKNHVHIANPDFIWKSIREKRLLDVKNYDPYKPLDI

PARP4 BRCT K31Q = biological target: T5, PARP4 BRCT K31Q (human, UniProt Q9UKK3 1-100, K31Q); test: as above
T5 sequence: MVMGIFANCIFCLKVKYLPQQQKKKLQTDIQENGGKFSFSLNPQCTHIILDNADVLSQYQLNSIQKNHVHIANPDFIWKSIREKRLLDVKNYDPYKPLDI

PARP4 BRCT K23/24Q = biological target: T6, PARP4 BRCT K23/24Q (human, UniProt Q9UKK3 1-100, K23Q;K24Q); test: as above
T6 sequence: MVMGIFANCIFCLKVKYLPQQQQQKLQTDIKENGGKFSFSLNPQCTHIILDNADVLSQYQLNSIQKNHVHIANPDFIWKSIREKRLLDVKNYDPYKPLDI

B1: vtRNA1-3 (structured_RNA)
RNA: GGCUGGCUUUAGCUCAGCGGUUACUUCGCGUGUCAUCAAACCACCUCUCUGGGUUGUUCGAGACCCGCGGGCGCUCUCCAGCCCUCUU
PARP4 BRCT WT [1]
  Kd: 18 ± 3 µM
PARP4 BRCT WT [2]
  Kd: 19 ± 4 µM
PARP4 BRCT F39Q
  Kd: 35 ± 10 µM
[3]
  Kd: 71 ± 26 µM
PARP4 BRCT F39A
  Kd: 33 ± 2 µM
PARP4 BRCT K31Q
  Kd: 61 ± 12 µM
PARP4 BRCT K23/24Q
  binding result: no binding
